In PMC6107663, “Crystal structure of human Mediator subunit MED23” (Nature Communications, 2018):

Experiments:
[1] = target: T1, human MED23 isoform 1, C-terminal 6xHis-tagged (MED23-6His) (human, UniProt Q9ULK4-1); experiment: crystal structure; purified MED23 mixed with Nb106 in a 1:1.2 ratio, 1 h at 4 °C; hanging drop vapor diffusion at 20 °C, 10% PEG6000, 100 mM HEPES pH 7.0; one complex in the asymmetric unit; details: both partners purified
T1 construct: Mediator subunit MED23, human, isoform 1 (NM_004830.3); A rhinovirus 3C protease site stands between MED23 and the 6xHis tag; no cleavage is described; The DNA encoding isoform 1 was amplified by PCR; the words 'full length' are not used, but the model is called complete except for the last 30 residues; also called recombinant human MED23; source: SF21 cells, baculovirus (Bac-to-Bac), purified …
T1 sequence (Q9ULK4 whole entry, the tested form may be a part, canonical isoform): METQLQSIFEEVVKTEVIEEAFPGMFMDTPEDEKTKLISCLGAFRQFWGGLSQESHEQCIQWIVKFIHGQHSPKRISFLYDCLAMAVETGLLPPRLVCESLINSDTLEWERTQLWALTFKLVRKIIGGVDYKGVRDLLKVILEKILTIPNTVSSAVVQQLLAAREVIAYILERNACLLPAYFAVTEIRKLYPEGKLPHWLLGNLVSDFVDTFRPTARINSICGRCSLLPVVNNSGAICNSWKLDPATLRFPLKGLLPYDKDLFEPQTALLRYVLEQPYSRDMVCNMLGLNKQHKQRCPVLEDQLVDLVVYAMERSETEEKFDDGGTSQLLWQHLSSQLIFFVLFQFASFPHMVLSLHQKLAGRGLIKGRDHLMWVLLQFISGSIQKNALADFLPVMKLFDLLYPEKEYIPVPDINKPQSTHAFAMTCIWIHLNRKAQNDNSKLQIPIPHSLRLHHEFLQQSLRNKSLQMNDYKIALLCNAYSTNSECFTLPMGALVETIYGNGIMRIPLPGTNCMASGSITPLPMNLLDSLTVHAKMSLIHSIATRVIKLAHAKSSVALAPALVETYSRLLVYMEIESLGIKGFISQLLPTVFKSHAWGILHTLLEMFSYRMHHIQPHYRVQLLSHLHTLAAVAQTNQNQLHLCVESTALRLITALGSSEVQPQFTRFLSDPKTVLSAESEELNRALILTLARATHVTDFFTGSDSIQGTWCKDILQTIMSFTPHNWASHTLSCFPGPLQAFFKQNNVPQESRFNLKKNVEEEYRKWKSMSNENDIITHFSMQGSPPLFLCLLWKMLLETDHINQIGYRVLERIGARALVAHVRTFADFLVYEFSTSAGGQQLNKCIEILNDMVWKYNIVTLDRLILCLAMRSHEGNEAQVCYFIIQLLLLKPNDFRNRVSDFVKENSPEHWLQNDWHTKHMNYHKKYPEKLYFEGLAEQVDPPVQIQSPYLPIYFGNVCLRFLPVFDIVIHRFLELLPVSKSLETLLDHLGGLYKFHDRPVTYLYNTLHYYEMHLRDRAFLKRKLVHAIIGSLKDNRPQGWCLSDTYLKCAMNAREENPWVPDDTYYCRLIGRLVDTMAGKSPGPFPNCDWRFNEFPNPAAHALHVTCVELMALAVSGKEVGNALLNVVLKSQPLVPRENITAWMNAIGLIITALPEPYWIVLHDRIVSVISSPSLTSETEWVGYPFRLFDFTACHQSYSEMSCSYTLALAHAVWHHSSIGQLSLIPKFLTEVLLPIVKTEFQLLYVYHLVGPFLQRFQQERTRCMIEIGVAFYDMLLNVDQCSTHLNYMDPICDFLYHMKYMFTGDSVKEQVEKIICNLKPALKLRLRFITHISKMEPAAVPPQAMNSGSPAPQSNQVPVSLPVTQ

[2] = target: T2, MED23, endogenous, incorporated within the Mediator complex (human (endogenous in HEK-293), UniProt Q9ULK4); experiment: co-IP; HEK-293 lysate (50 mM Tris/HCl pH 8, 250 mM NaCl, 0.1% Igepal CA-630) incubated with 2 µg of Nb106 overnight at 4 °C; fished with CaptureSelect C-tag Affinity Matrix; western blot; details: one partner purified
T2 construct: Mediator subunit MED23, human, endogenous; source: endogenous, HEK-293 lysate
T2 sequence (Q9ULK4 whole entry, one chain of several): as the sequence (Q9ULK4 whole entry, the tested form may be a part, canonical isoform) above

- binding result [1]: binds
- binding result [2]: binds
B1: nanobody Nb106 (VHH)
VHH: QVQLVESGGGLVQAGASLRLSCAVSGRTGSIYTMGWFRQAPGKEREVVARTTWTPGSTKYADSVKGRVAISRDIAKNTLYLQMNNLKPEDTAVYYCAACAYGTCYYGDRAYEYWGQGTQVTVSS
notes: A related nanobody (PDB 5IMK) was used to fit the density; it is not Nb106; also called lama nanobody; source: E. coli WK6, periplasmic extract, purified (Ni-NTA, Superdex 75)
